Experimental data taken from PMC11347734, “Ultrasensitive Quantification of MUC16 Antigen/Amine-Terminated Aptamer Interaction by Surface Plasmon Resonance: Kinetic and Thermodynamic Studies”.

Legend:
Conditions in all cases: protein: commercial
MUC16 antigen (CA125) [1] = molecular target: T1, MUC16 antigen (CA125) (UniProt Q8WXI7 1-14451); assay: SPR; 25 C, pH 7.2; kon 2.55e4 M-1 s-1, koff 1.01e-3 s-1; SPR, pH 7.2, 25 C (also 37 and 42 C); 1X PBS with 1 mM MgCl2 given as flow buffer for aptamer immobilization; surface blocked with 0.1% BSA
MUC16 antigen (CA125) [2] = molecular target: T1, MUC16 antigen (CA125); assay: SPR; 310 K (37 C), pH 7.2; SPR, pH 7.2, 25 C (also 37 and 42 C); 1X PBS with 1 mM MgCl2 given as flow buffer for aptamer immobilization; surface blocked with 0.1% BSA
MUC16 antigen (CA125) [3] = molecular target: T1, MUC16 antigen (CA125); assay: SPR; 315 K (42 C), pH 7.2; SPR, pH 7.2, 25 C (also 37 and 42 C); 1X PBS with 1 mM MgCl2 given as flow buffer for aptamer immobilization; surface blocked with 0.1% BSA

CTCACTATAGGGAGACAAGAATAAACGCTCAA (ssDNA, 3'-C6 amine) [anti-MUC16 aptamer]
Kd (MUC16 antigen (CA125) [1]): 39 nM
Kd (MUC16 antigen (CA125) [2]): 101 nM
Kd (MUC16 antigen (CA125) [3]): 1340 nM
